From the supplement of paper PMC9112550, “Optimization of the antimicrobial peptide Bac7 by deep mutational scanning” (BMC Biology, 2022) come the findings set out here.

The subject of the data set is Escherichia coli TOP10. As to the kind of experiment: shrunken log2 fold change of peptide-encoding DNA abundance (4.5 h post-induction vs induction); higher = less antimicrobial activity (less host growth inhibition). As to conditions: time post-induction: 4.5 h; library: site-saturation at positions 5, 18, 19, 20.
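Also: peptides expressed intracellularly from a pBAD plasmid library in pooled LB shake-flask culture, induced with 0.3% L-arabinose, DNA abundance read by NGS, three biological replicates, DESeq2 with apeglm shrinkage.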

As for RRIRKRPPRLPRPRPRPVKSPRP, the “shrunken log2 fold change” value is 0.155.

Turning to RRIRTRPPRLPRPRPRPGYHPRP, the “shrunken log2 fold change” value was -0.315.

Consider RRIRKRPPRLPRPRPRPVNSPRP, for which the “shrunken log2 fold change” value came out at 0.0157.

RRIRDRPPRLPRPRPRPTKLPRP: the “shrunken log2 fold change” value was 0.0975.

In the case of RRIRSRPPRLPRPRPRPCWYPRP, the “shrunken log2 fold change” value is -0.393.

With RRIRWRPPRLPRPRPRPLYNPRP, the “shrunken log2 fold change” value is -0.78.

Take RRIRHRPPRLPRPRPRPMVGPRP: the “shrunken log2 fold change” value was -0.0276.

RRIRNRPPRLPRPRPRPTIKPRP: the “shrunken log2 fold change” value is -0.496.

For the sequence RRIRIRPPRLPRPRPRPCMWPRP, the “shrunken log2 fold change” value is -1.51.

For the sequence RRIRMRPPRLPRPRPRPNPQPRP, the “shrunken log2 fold change” value was 0.279.

Take RRIRQRPPRLPRPRPRPPDNPRP: the “shrunken log2 fold change” value stood at 0.00496.

On to RRIRPRPPRLPRPRPRPAAVPRP, for which the “shrunken log2 fold change” value turned out to be 0.41.

Regarding RRIRYRPPRLPRPRPRPRLVPRP, the “shrunken log2 fold change” value is -0.0287.

For RRIRKRPPRLPRPRPRPYGGPRP, the “shrunken log2 fold change” value was determined as 0.0335.

As to RRIRTRPPRLPRPRPRPHFMPRP, the “shrunken log2 fold change” value was -0.339.

Consider RRIRCRPPRLPRPRPRPEIIPRP, for which the “shrunken log2 fold change” value was -0.363.

In the case of RRIRIRPPRLPRPRPRPGQRPRP, the “shrunken log2 fold change” value is -0.0709.

Take RRIRNRPPRLPRPRPRPEMYPRP: the “shrunken log2 fold change” value was -0.0311.

Regarding RRIRVRPPRLPRPRPRPAKCPRP, the “shrunken log2 fold change” value came to 0.0602.

For RRIRIRPPRLPRPRPRPIAYPRP, the “shrunken log2 fold change” value was -0.32.

For the sequence RRIRMRPPRLPRPRPRPTIHPRP, the “shrunken log2 fold change” value was -0.134.

For RRIRNRPPRLPRPRPRPAMGPRP, the “shrunken log2 fold change” value worked out at 0.288.

Regarding RRIRARPPRLPRPRPRPCAMPRP, the “shrunken log2 fold change” value amounted to 0.397.

For RRIRRRPPRLPRPRPRPLPWPRP, the “shrunken log2 fold change” value stood at 0.057.

Regarding RRIRTRPPRLPRPRPRPPQHPRP, the “shrunken log2 fold change” value came to 0.22.

Take RRIRLRPPRLPRPRPRPDVHPRP: the “shrunken log2 fold change” value was -0.186.

In the case of RRIRWRPPRLPRPRPRPVRVPRP, the “shrunken log2 fold change” value amounted to 0.214.

On to RRIRPRPPRLPRPRPRPYWTPRP, for which the “shrunken log2 fold change” value is -0.68.

On to RRIRHRPPRLPRPRPRPRQCPRP, for which the “shrunken log2 fold change” value was -0.0969.

As for RRIRLRPPRLPRPRPRPLGHPRP, the “shrunken log2 fold change” value was -0.0858.

Regarding RRIRYRPPRLPRPRPRPHCNPRP, the “shrunken log2 fold change” value was -0.366.

In the case of RRIRFRPPRLPRPRPRPCDWPRP, the “shrunken log2 fold change” value was -0.0151.

RRIRGRPPRLPRPRPRPSNTPRP: the “shrunken log2 fold change” value is -0.023.

As for RRIRKRPPRLPRPRPRPDDEPRP, the “shrunken log2 fold change” value came to 0.143.

As to RRIRHRPPRLPRPRPRPPYSPRP, the “shrunken log2 fold change” value is -0.418.

Take RRIRCRPPRLPRPRPRPMDNPRP: the “shrunken log2 fold change” value was -0.411.

Consider RRIRHRPPRLPRPRPRPLYDPRP, for which the “shrunken log2 fold change” value was -0.738.

In the case of RRIRSRPPRLPRPRPRPSEDPRP, the “shrunken log2 fold change” value was -0.325.

For the sequence RRIRDRPPRLPRPRPRPFLDPRP, the “shrunken log2 fold change” value came out at 0.431.

Turning to RRIRLRPPRLPRPRPRPENTPRP, the “shrunken log2 fold change” value was -0.235.

For the sequence RRIRKRPPRLPRPRPRPNERPRP, the “shrunken log2 fold change” value is -0.0286.

Regarding RRIRLRPPRLPRPRPRPCSWPRP, the “shrunken log2 fold change” value is -0.0168.

As to RRIRCRPPRLPRPRPRPAVPPRP, the “shrunken log2 fold change” value was 0.073.

In the case of RRIRQRPPRLPRPRPRPPVYPRP, the “shrunken log2 fold change” value is -0.0643.

Consider RRIRNRPPRLPRPRPRPINDPRP, for which the “shrunken log2 fold change” value came to 0.0259.

Take RRIRMRPPRLPRPRPRPTDVPRP: the “shrunken log2 fold change” value stood at 0.141.

As for RRIRMRPPRLPRPRPRPDVYPRP, the “shrunken log2 fold change” value is -0.119.

For RRIRARPPRLPRPRPRPGFHPRP, the “shrunken log2 fold change” value was 0.245.

Turning to RRIRQRPPRLPRPRPRPVGYPRP, the “shrunken log2 fold change” value was found to be 0.101.

With RRIRRRPPRLPRPRPRPRLKPRP, the “shrunken log2 fold change” value was 0.231.

For RRIRRRPPRLPRPRPRPWCFPRP, the “shrunken log2 fold change” value is -0.0808.

In the case of RRIRARPPRLPRPRPRPGGKPRP, the “shrunken log2 fold change” value stood at 0.563.

In the case of RRIRIRPPRLPRPRPRPMYKPRP, the “shrunken log2 fold change” value is -1.13.

For RRIRHRPPRLPRPRPRPLQDPRP, the “shrunken log2 fold change” value was -0.0821.

Regarding RRIRKRPPRLPRPRPRPRDGPRP, the “shrunken log2 fold change” value stood at 0.822.

Regarding RRIRARPPRLPRPRPRPRDKPRP, the “shrunken log2 fold change” value is 0.442.

Regarding RRIRRRPPRLPRPRPRPNLKPRP, the “shrunken log2 fold change” value was -0.0818.

On to RRIRHRPPRLPRPRPRPTYVPRP, for which the “shrunken log2 fold change” value is -0.143.

On to RRIRNRPPRLPRPRPRPGVSPRP, for which the “shrunken log2 fold change” value was -0.279.

On to RRIRNRPPRLPRPRPRPAVHPRP, for which the “shrunken log2 fold change” value is -0.0211.

In the case of RRIRGRPPRLPRPRPRPTITPRP, the “shrunken log2 fold change” value turned out to be 0.526.

Take RRIRNRPPRLPRPRPRPNVEPRP: the “shrunken log2 fold change” value is -0.0627.

For the sequence RRIRHRPPRLPRPRPRPIFLPRP, the “shrunken log2 fold change” value was -0.572.

In the case of RRIRNRPPRLPRPRPRPKRKPRP, the “shrunken log2 fold change” value came out at 0.226.

Take RRIRHRPPRLPRPRPRPTFYPRP: the “shrunken log2 fold change” value is -0.183.

RRIRPRPPRLPRPRPRPKQHPRP: the “shrunken log2 fold change” value is -0.0393.

Turning to RRIRWRPPRLPRPRPRPVIPPRP, the “shrunken log2 fold change” value was -0.0775.

As to RRIRARPPRLPRPRPRPHISPRP, the “shrunken log2 fold change” value was -0.278.

Turning to RRIRMRPPRLPRPRPRPTTGPRP, the “shrunken log2 fold change” value was 0.467.

As to RRIRARPPRLPRPRPRPDIVPRP, the “shrunken log2 fold change” value stood at 0.244.

Consider RRIRIRPPRLPRPRPRPVKEPRP, for which the “shrunken log2 fold change” value was -0.0496.

As to RRIRMRPPRLPRPRPRPFPEPRP, the “shrunken log2 fold change” value is 0.562.

For RRIRWRPPRLPRPRPRPQLRPRP, the “shrunken log2 fold change” value worked out at 0.0178.

As for RRIRLRPPRLPRPRPRPMRDPRP, the “shrunken log2 fold change” value worked out at 0.336.

For the sequence RRIRFRPPRLPRPRPRPFWKPRP, the “shrunken log2 fold change” value was -0.0963.

In the case of RRIRNRPPRLPRPRPRPRVYPRP, the “shrunken log2 fold change” value is -0.0128.

RRIRHRPPRLPRPRPRPMYWPRP: the “shrunken log2 fold change” value is -0.222.

As for RRIRQRPPRLPRPRPRPDYRPRP, the “shrunken log2 fold change” value is -0.00448.

For RRIRYRPPRLPRPRPRPTQRPRP, the “shrunken log2 fold change” value is -0.164.

As to RRIRKRPPRLPRPRPRPVMRPRP, the “shrunken log2 fold change” value was 0.74.

Take RRIRIRPPRLPRPRPRPPIRPRP: the “shrunken log2 fold change” value was -0.0314.

Take RRIRDRPPRLPRPRPRPWKRPRP: the “shrunken log2 fold change” value is -0.0239.

As for RRIRFRPPRLPRPRPRPRAGPRP, the “shrunken log2 fold change” value is 0.614.

In the case of RRIRSRPPRLPRPRPRPMYWPRP, the “shrunken log2 fold change” value was -0.134.

Turning to RRIRCRPPRLPRPRPRPFQWPRP, the “shrunken log2 fold change” value is -0.0999.

Turning to RRIRSRPPRLPRPRPRPHKAPRP, the “shrunken log2 fold change” value is -0.1.

Regarding RRIRDRPPRLPRPRPRPVTHPRP, the “shrunken log2 fold change” value was -0.0987.

Turning to RRIRVRPPRLPRPRPRPIFVPRP, the “shrunken log2 fold change” value was -0.0998.

Turning to RRIRDRPPRLPRPRPRPGNLPRP, the “shrunken log2 fold change” value is -0.0298.

Regarding RRIRWRPPRLPRPRPRPIFEPRP, the “shrunken log2 fold change” value was 0.308.

With RRIRSRPPRLPRPRPRPTNAPRP, the “shrunken log2 fold change” value was -0.0746.

Consider RRIRHRPPRLPRPRPRPKSGPRP, for which the “shrunken log2 fold change” value is -0.242.

For RRIRMRPPRLPRPRPRPITCPRP, the “shrunken log2 fold change” value is -0.0534.

In the case of RRIRHRPPRLPRPRPRPVVIPRP, the “shrunken log2 fold change” value was -0.759.

In the case of RRIRGRPPRLPRPRPRPFEKPRP, the “shrunken log2 fold change” value stood at 0.22.

RRIRVRPPRLPRPRPRPVSAPRP: the “shrunken log2 fold change” value was -0.141.

Consider RRIRYRPPRLPRPRPRPHHHPRP, for which the “shrunken log2 fold change” value is -1.09.

As for RRIRCRPPRLPRPRPRPGQKPRP, the “shrunken log2 fold change” value turned out to be 0.0902.

For RRIRLRPPRLPRPRPRPVTMPRP, the “shrunken log2 fold change” value is -0.195.

Turning to RRIRERPPRLPRPRPRPLHMPRP, the “shrunken log2 fold change” value is -0.203.

With RRIRVRPPRLPRPRPRPESIPRP, the “shrunken log2 fold change” value was -0.149.

Consider RRIRWRPPRLPRPRPRPTQRPRP, for which the “shrunken log2 fold change” value came to 0.133.

Take RRIRHRPPRLPRPRPRPNYLPRP: the “shrunken log2 fold change” value is -0.114.

For RRIRTRPPRLPRPRPRPELEPRP, the “shrunken log2 fold change” value amounted to 0.0188.

RRIRTRPPRLPRPRPRPDAWPRP: the “shrunken log2 fold change” value was determined as 0.285.

As for RRIRHRPPRLPRPRPRPERHPRP, the “shrunken log2 fold change” value amounted to 0.0281.

For the sequence RRIRQRPPRLPRPRPRPGIQPRP, the “shrunken log2 fold change” value is -0.056.

Take RRIRERPPRLPRPRPRPGPPPRP: the “shrunken log2 fold change” value is 0.317.

Consider RRIRLRPPRLPRPRPRPHHWPRP, for which the “shrunken log2 fold change” value is -0.124.

Take RRIRTRPPRLPRPRPRPIYYPRP: the “shrunken log2 fold change” value is -0.818.

Take RRIRKRPPRLPRPRPRPQNIPRP: the “shrunken log2 fold change” value is -0.21.

For RRIRLRPPRLPRPRPRPTWWPRP, the “shrunken log2 fold change” value came to 0.454.

As for RRIRVRPPRLPRPRPRPVRSPRP, the “shrunken log2 fold change” value is 0.522.

For the sequence RRIRCRPPRLPRPRPRPGHQPRP, the “shrunken log2 fold change” value was found to be 0.242.

In the case of RRIRVRPPRLPRPRPRPQDHPRP, the “shrunken log2 fold change” value is -0.253.

RRIRERPPRLPRPRPRPGLSPRP: the “shrunken log2 fold change” value was -0.113.

With RRIRNRPPRLPRPRPRPNILPRP, the “shrunken log2 fold change” value is -0.0518.

Consider RRIRWRPPRLPRPRPRPAYHPRP, for which the “shrunken log2 fold change” value was -0.361.

As for RRIRTRPPRLPRPRPRPCLHPRP, the “shrunken log2 fold change” value is -1.17.

Regarding RRIRVRPPRLPRPRPRPLETPRP, the “shrunken log2 fold change” value is -0.062.

As for RRIRDRPPRLPRPRPRPKLSPRP, the “shrunken log2 fold change” value came to 0.0504.

Turning to RRIRTRPPRLPRPRPRPSDTPRP, the “shrunken log2 fold change” value is -0.212.

Turning to RRIRTRPPRLPRPRPRPFDVPRP, the “shrunken log2 fold change” value was -0.243.

Consider RRIRARPPRLPRPRPRPSGTPRP, for which the “shrunken log2 fold change” value was -0.0328.

Consider RRIRFRPPRLPRPRPRPPAKPRP, for which the “shrunken log2 fold change” value is 0.633.
